Literature values in publication PMC4623992.

Molecular target: TLR4 (Homo sapiens) (UniProt O00206)
UniProt O00206, sequence (O00206 24-631): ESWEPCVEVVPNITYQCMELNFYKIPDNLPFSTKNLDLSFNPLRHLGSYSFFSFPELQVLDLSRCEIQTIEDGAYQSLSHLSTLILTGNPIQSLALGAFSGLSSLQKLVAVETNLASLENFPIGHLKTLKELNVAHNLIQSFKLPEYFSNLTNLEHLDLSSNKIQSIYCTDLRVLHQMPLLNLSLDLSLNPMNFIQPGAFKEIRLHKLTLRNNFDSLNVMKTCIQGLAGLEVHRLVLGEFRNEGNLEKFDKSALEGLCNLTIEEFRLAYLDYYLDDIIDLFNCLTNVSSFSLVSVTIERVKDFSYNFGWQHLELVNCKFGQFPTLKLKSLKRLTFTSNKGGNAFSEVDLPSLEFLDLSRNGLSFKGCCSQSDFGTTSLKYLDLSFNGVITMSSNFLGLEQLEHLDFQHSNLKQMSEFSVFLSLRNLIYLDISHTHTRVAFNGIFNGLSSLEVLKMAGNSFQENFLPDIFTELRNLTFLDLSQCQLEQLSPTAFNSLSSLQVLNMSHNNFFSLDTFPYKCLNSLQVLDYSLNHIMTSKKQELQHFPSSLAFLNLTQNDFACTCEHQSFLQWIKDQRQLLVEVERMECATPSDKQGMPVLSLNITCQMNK

MD-2 (from UniProt Q9Y6Y9)
Kd: 12 nM
